Tests used:
[1] = biological target: T1, Isopeptide(3)_Isopeptide(1)_Isopeptide(2) domains-IGSF8 VLM fusion protein (Homo sapiens (IGSF8 portion)); assay: Cy3 fluorescence on SDS-PAGE, conjugate incubated with modified EVs
T1 construct: Flag-tagged fusion of three isopeptide domains and IGSF8; also called Tricatcher-1-IGSF8; Tricatcher-1-IGSF8 fusion protein
Protocol: 3 μL 500 mM DTT. Samples are mixed, vortexed briefly, spun and heated to 95° C. for 5 min before loading 15 μL per well of NuPAGE® Bis-Tris precast gel. Gel is run at 125V for 1 hr using 1×2-(N-morpholino)ethanesulfonic acid (MES) buffer, following gel manufacturer recommendation, with the loading dye front permitted to run off the gel in order to better separate high molecular weight bands. Seeblue Plus 2 Pre-stained Standard is used as molecular weight standard to follow the course of the electrophoresis and well as a reference for the determining the apparent molecular weight of the targeting moiety-VLM conjugate, in particular, the 5′-IsoPepTag1-ASO-Tricatcher-1-IGSF8 and 3′-IsoPepTag1-ASO-Tricatcher-1-IGSF8 conjugates.

[2] = biological target: T1, Isopeptide(3)_Isopeptide(1)_Isopeptide(2 …); assay: Capillary electrophoresis-Western blot (Jess), anti-myc, peptide incubated with modified EVs
Protocol: (§1) for a total volume of 50 μL. […] Samples are mixed by repeated pipetting. The microtiter plate is covered, spun at 50×g for 1 min and incubated at RT with shaking on an orbital shaker for 3 hrs. Reaction is terminated by adding 12.5 μL of 5× termination buffer (5% SDS, 300 mM Tris-HCl (pH 6.8)), mixing and transferring to 1.5-mL microfuge tube, and heating the tube to 95° C., 5 min. Samples are analyzed on a combined automated capillary electrophoresis and Western blot system (Jess™ Simple Western system) according to the manufacturer ProteinSimple® (San Jose, CA), using anti-myc or anti-FLAG antibody as a primary antibody followed by a goat anti-mouse secondary antibody-conjugated to horseradish peroxidase for chemiluminescent detection.

[3] = biological target: T2, Isopeptide(1)_Isopeptide(2) domains-IGSF VLM fusion protein (Homo sapiens (IGSF8 portion)); assay: as above
T2 construct: also called Di; DiCatcher-IGSF8
Protocol: as §1

[4] = biological target: T3, Isopeptide(2) domain-IGSF8 VLM fusion protein (Homo sapiens (IGSF8 portion)); assay: Capillary electrophoresis-Western blot (Jess), anti-myc, 50 µM peptide, 3 h at RT with modified EVs
T3 construct: also called Iso-2; isopeptide(2)-IGSF8
T3 chain: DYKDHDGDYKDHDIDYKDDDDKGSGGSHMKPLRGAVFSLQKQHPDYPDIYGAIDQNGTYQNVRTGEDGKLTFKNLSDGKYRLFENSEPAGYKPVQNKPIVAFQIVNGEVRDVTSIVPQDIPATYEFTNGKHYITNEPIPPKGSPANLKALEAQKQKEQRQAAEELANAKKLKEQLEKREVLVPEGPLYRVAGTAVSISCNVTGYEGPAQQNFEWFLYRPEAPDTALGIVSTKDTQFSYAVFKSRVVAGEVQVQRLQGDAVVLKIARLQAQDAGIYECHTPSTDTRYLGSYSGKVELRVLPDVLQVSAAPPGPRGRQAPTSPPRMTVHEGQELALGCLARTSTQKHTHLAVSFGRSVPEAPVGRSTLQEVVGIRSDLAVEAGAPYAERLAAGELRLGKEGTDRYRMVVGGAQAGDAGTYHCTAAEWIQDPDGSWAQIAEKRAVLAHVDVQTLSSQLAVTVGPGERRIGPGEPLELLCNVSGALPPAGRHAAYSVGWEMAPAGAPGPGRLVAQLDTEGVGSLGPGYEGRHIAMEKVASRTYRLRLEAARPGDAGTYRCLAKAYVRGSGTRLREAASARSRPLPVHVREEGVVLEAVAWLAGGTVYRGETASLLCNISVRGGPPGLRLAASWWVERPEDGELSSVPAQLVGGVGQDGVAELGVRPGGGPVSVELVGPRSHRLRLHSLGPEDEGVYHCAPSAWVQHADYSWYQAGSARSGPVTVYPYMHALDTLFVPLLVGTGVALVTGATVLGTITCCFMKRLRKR
Protocol: as §1

[5] = biological target: T3, Isopeptide(2) domain-IGSF8 VLM fusion …; assay: Capillary electrophoresis-Western blot (Jess), anti-myc, peptide incubated with modified EVs
Protocol: as §1

[6] = biological target: T1, Isopeptide(3)_Isopeptide(1)_Isopeptide(2 …); assay: Capillary electrophoresis-Western blot, anti-S-tag, peptide incubated 3 h at RT with modified EVs (FIG. 13)
Protocol: (§2) EVs were harvested and purified from producer cells transfected with each of the indicated recombinant isopeptide domain-containing proteins as described above in Example 11. EVs denoted as “Un” were harvested and purified in parallel from untransfected cells. Two additional GPC3 affinity peptide-Isopeptide Tag fusion peptides, namely to either Isopeptide-1 tag or Isopeptide-3 tag, are tested for the ability form a covalent bond (i.e., isopeptide bond) with the IGSF8 fusion proteins comprising IGSF8 as a VLM and an Isopeptide-2 domain (SEQ ID NO: 200 from expression vector in FIG. 2), Isopeptide-1 and Isopeptide-2 domains (SEQ ID NO: 202 from expression vector in FIG. 3) or Isopeptide-1, Isopeptide-2 and Isopeptide-3 domains (SEQ ID NO: 204 from expression vector in FIG. 4; also called Tricatcher-1-IGSF8 fusion protein), indicated as “Iso-2,” “Di” and “Tri,” respectively, for the Isopeptide domain-VLM status (see FIG. 13). GPC3 affinity peptide (PEPN)-Isopeptide-1 Tag fusion peptide and GPC3 affinity peptide-Isopeptide-3 Tag fusion peptide additionally have an S-peptide epitope tag (S-tag) and V5 epitope tag, respectively; while the IGSF fusion proteins all have a Flag epitope tag. […]

[7] = biological target: T2, Isopeptide(1)_Isopeptide(2) …; assay: as above
Protocol: as §2

[8] = biological target: T1, Isopeptide(3)_Isopeptide(1)_Isopeptide(2 …); assay: Capillary electrophoresis-Western blot, anti-V5, peptide incubated 3 h at RT with modified EVs (FIG. 13)
Protocol: as §2

B1: 5′-IsoPepTag1-ASO (peptide)
peptide: AHIVMVDAYKPTKC
modifications: C-terminal Cys joined by click chemistry to the 5′ end of the antisense oligonucleotide TGC GCT CCT GGA CGT AGC C, which carries Cy3 at its 3′ end
notes: Peptide-oligonucleotide conjugate; also called 5′-IsoPep1Tag-ASO; Cy3-labeled IsoPep1Tag-ASO conjugate
[1]
  binding result: binds

B2: N-IsoPep2Tag-PEPN (peptide)
peptide: KLGDIEFIKVNKSGGGGSGGGGEQKLISEEDLTHVSPNQGGLPS
notes: also called Isopeptide-2 tag-PEPN fusion peptide (tag at N-terminus); C-terminal PEPN + Isopeptide(2) tag
[2]
  binding result: binds
[3]
  binding result: binds
[4]
  binding result: binds

B3: C-IsoPep2Tag-PEPN (peptide)
peptide: THVSPNQGGLPSSGGGGSGGGGEQKLISEEDLKLGDIEFIKVNK
notes: also called Isopeptide-2 tag-PEPN fusion peptide (tag at C-terminus); N-terminal PEPN + Isopeptide(2) tag
[2]
  binding result: binds
[5]
  binding result: binds
[3]
  binding result: binds

B4: 3′-IsoPepTag1-ASO (peptide)
peptide: CAHIVMVDAYKPTK
modifications: N-terminal Cys joined by click chemistry to the 3′ end of the antisense oligonucleotide TGC GCT CCT GGA CGT AGC C, which carries Cy3 at its 5′ end
notes: Peptide-oligonucleotide conjugate; also called 3′-IsoPep1Tag-ASO; C-IsoPep1Tag-ASO
[1]
  binding result: binds

B5: S-tag labeled Isopeptide(1) tag fusion peptide, SEQ ID NO: 238 (peptide)
peptide: AHIVMVDAYKPTKSGGGGSGGGGKETAAAKFERQHMDSTHVSPNQGGLPS
notes: Order is isopeptide-1 tag, linker, S-tag, PEPN; also called C-terminal PEPN + Isopeptide(1) tag
[6]
  binding result: binds
[7]
  binding result: binds

B6: V5-epitope tagged Isopeptide(3) tag fusion peptide, SEQ ID NO: 246 (peptide)
peptide: DPIVMIDNDKPITSGGGGSGGGGGKPIPNPLLGLDSTTHVSPNQGGLPS
notes: also called C-terminal PEPN + Isopeptide(3) tag
[8]
  binding result: binds

B7: V5-epitope tagged Isopeptide(3) tag fusion peptide, SEQ ID NO: 244 (peptide)
peptide: THVSPNQGGLPSSGGGGSGGGGGKPIPNPLLGLDSTDPIVMIDNDKPIT
notes: also called N-terminal PEPN + Isopeptide(3) tag
[8]
  binding result: binds

Source: patent publication US20240294585A1 (MANTRA BIO, published 2024)
